According to patent US12441811B2, “Compositions and methods for treating serpin B13 disorders” (REGENTS OF THE UNIVERSITY OF MINNESOTA, priority 2019, dated 2025):
Entries after “also recorded” stand apart in the source; their conditions may differ.

What was measured:
[1] = tested on: Ngn3+ cells; experiment: Genetic lineage tracing of Ngn3+ cells; type: in vivo, mouse
Description: FIGS. 18A-18C. Genetic tracing of Ngn3^+ cells in the pancreas of healthy and diabetic adult mice treated with anti-serpinB13 mAb. (A) The protocol of mice treatment with streptozotocin (STZ), tamoxifen (TAM), and anti-serpinB13 mAb (or control Ab). Eight-week old Ngn3Cre^ERTR26^YFP mice were induced into diabetes with STZ (150 mg/kg) and genetically labelled with YFP to mark Ngn3^+ cells, using TAM one day after injection of STZ, and an additional three times every other day thereafter. The antibodies were injected every day for 7 days at 100 μg/injection during the first week after STZ treatment. (B) Quantitative analysis by IF microscopy of YFP^+ cells expressing insulin at two weeks following induction of diabetes with STZ. […] (C) Representative microscopic IF images of YFP^+insulin^+ cells depicted in (B). Data are presented as the mean±SEM. Ordinary one-way ANOVA with Sidak test. Scale bars, 10 μm. NS, not significant. αB13, anti-serpinB13 mouse mAb.
Linage tracing. In the developmental studies, the Rosa26^EYFP females were initially set up for overnight breeding with NgnCre^ERT males and the following morning examined for the presence of a vaginal plug to indicate embryonic day E0.5. On embryonic day E10.5, E11.5, E12.5 and 13.5, anti-serpinB13 mAb (or control Ab) was injected i.p. at a dose of 50 μg per animal per day (total dose of 200 μg). […]

[2] = tested on: Notch1 receptor; experiment: Examination of Notch1 receptor in embryonic pancreas (Western blot, flow cytometry, qPCR); type: cell-based, mouse; details: for levels of active Notch intracellular domain (aNICD): embryonic pancreas, antibody vs control Ab
Description: Staining for flow cytometry. BD LSRFortessa X-20, LSR-II and FACSCanto-II were used for FACS analysis. Positive populations of cells were gated and counted using FlowJo ver.10 software. For the islet cells isolated from adult mice, intracellular staining to detect glucagon and insulin was used to count single-positive as well as double-negative cells. In the cells isolated from embryonic pancreas explants, intracellular staining was performed to detect Ngn3, CK19, and active Notch, and extracellular staining was used to detect the extracellular Notch domain, EpCAM, CD31 and CD45.
Western blotting. Pancreatic tissues were processed from E16.5 embryos as single samples and directly used for lysis. Embryonic pancreas explants from E12.5 embryos were cultured in vitro with anti-serpinB13 mAb (or control Ab) for 24 or 48 hours, then, three explant cultures were combined and lysed. The samples were washed two times in ice-cold PBS and lysed with gentle pipetting for 10 minutes with additional tap-vortexing for 15 minutes in RIPA buffer containing Halt protease inhibitors (cat. no. 1862209, Thermo Fisher Scientific). Equal amounts of protein in each sample were run under reducing conditions on Bis-Tris BOLT gradient gel (4-12%) or NUPAGE Tris-acetate gradient gels (4-12%) (both from Thermo Fisher Scientific), and transferred onto […] nitrocellulose or activated PVDF membranes. The membranes were blocked with 5% skim milk and stained with primary and secondary antibodies, as indicated. The Western blots were developed with SuperSignal West Pico Chemiluminescent Substrate or West Femto Maximum Sensitivity Substrate (cat. nos. […] and […], respectively; both from Thermo Scientific), and scanned using the ChemiDoc™ MP Imaging System (Bio-Rad, Hercules, […], USA).
Quantitative real-time PCR. Total RNA from embryonic pancreases was extracted using the RNeasy UCP Micro kit (cat. no. 73934; Qiagen, Hilden, Germany) to measure expression of the Notch1 gene. One hundred to […] of the total RNA per group was reverse transcribed to cDNA using the iScript cDNA Synthesis Kit (cat. no. 1708891; Bio-Rad). Quantitative PCR assays were performed on an Applied Biosystems QuantStudio 3 real-time PCR system using cDNA and the Kapa Sybr Fast reagent (cat. no. 0795959100; Roche). Actin-R was used as a reference gene. The primer sequence for Notch1 was as follows: forward—5′[…]3′ and reverse—5′ […]3′.

B1: B29: mouse monoclonal antibody to serpin B13, clone B29; heavy chain SEQ ID NO:14, kappa light chain SEQ ID NO:16 (antibody, V domains shown)
VH: QIQLVQSGPELKKPGETVKISCKASGYTFTTYGMSWVKQAPGKGLKWMGWINTYSGMPTYADDFKGRFAFSLETSATTAYLQINNLKNEDTATYFCARPLLGLDYWGQGTTLTVSS
VL: DIVMTQTPLSLSVTIGQPASISCKSSQSLLHSDGKTFLNWFLQRPGQSPKLLIYLVSKLESGIPDRFSGSGSGTDFTLKISRVEVEDLGVYYCLQHTHFPLTFGAGTKLEIK
B1 was tested, and the “transition from Ngn3 to insulin expression (YFP+insulin+ cells)” value ([1]; adult mice with STZ-induced pancreatic damage, 100 μg/injection for 7 days, listed as anti-serpinB13 mAb) was “also observed; also recorded: increase”, the “conversion of Ngn3+ cells to insulin-positive status” value ([1]; injection during gestation, YFP+insulin+ cells in embryos) was “enhanced conversion” and the “~60 kD degradation fragments of Notch1” value ([2]; E12.5 explants treated 48 hours) was “induction”. For the same molecule, the “levels of active Notch intracellular domain (aNICD)” value [2] was “diminished”, the “levels of active Notch intracellular domain (aNICD)” value ([2]; listed as mAb) was “markedly reduced levels” and the “expression of the ectodomain of the Notch1 receptor” value ([2]; embryonic pancreatic tissue, in vivo and in vitro exposure, 24 and 48 hours) was “time-dependent reduced expression”. For the same molecule, the “transcriptional level of Notch1” value ([2]; quantitative PCR) was “relatively intact”.
